Test results as given in US20050267020A1, “Polypeptides derived from inducible hsp70 and pharmaceutical compositions containing the same” (priority 2001, published 2005).

Tests used:
HLA-B*0702 = target: T1, HLA-B*0702 (Homo sapiens, UniProt P01889); assay: Measurement of peptide relative affinity to HLA-B*0702; format: binding; details: for Relative affinity: towards HLA-B*0702 molecule, lower = stronger binding
T1 construct: expressed in transfected cells; host or cells: T2-B7 cells (Tap-/-)
Experimental: Measurement of Peptide Relative Affinity to HLA class I. Tap−/− cells expressing the studied HLA-class I molecule (3×10^5 cells/mL) were incubated with various concentrations of peptides ranging from 100 μM to 0.1 μM in serum-free RPMI 1640 medium supplemented with 100 ng/ml of human β-2m at 37° C. for 16 hours. Cells were then washed twice and stained with the specific anti-class I mAb followed by FITC conjugated goat anti mouse Ig mAb to quantify the expression of HLA-A*0201. For each peptide concentration, the HLA-specific staining was calculated as the % of the staining obtained with 100 μM of the reference peptide. The relative affinity (RA) is determined as: RA=(Concentration of each peptide that induces 20% of HLA expression/Concentration of the reference peptide that induces 20% of HLA expression). The lower the RA-value, the stronger is the peptide binding to HLA. The mean RA value for each peptide is determined from at least three independent experiments.
For the study of Relative Affinity to HLA-A*0201, Tap−/− HLA-A*0201 T2 cells, the HLA-A*0201 specific mAb BB7.2 and the reference HLA-A*0201-binding peptide HIVpol 589 (IVGAETFYV) were used. For the study of Relative Affinity to HLA-A*0301, Tap−/− HLA-A*0301 T2-A3 cells are used. For the study of Relative Affinity to HLA-B*0701, Tap−/− HLA-B*0701 T2-B7 cells are used.
High affinity peptide discovery was also lead for the MHC molecule HLA-B*0702. 11 peptides presenting the primary anchor motif for HLA-B*0702 or predicted to show a high affinity by the computerized program BIMAS were tested for their Relative Affinity.

[1] = tested on: COS cells transfected with both Hsp70 and HHD expression vectors; assay: Peptide processing assay on COS-transfected cells, TNF-α secretion by murine CTL; format: cell-based, simian
Text: After contact of murine CTL lines with transfected COS cell, CTL recognition of COS cells is expressed as CTL secretion of TNF-α dosed in supernatant (X Axis, TNF-α ranges from 0 to 500 pg/ml). The graphs represent TNF-α dosage by cytotoxic cell lines, respectively mCTL380, mCTL391 mCTL393 and mCTL134, after contact with COS cells. In each graph, upper to lower bars represent the different cells in contact with CTL, respectively: negative control (no COS cell), COS cells, COS cells transfected with Hsp70 expression plasmid, COS cells transfected with HHD expression plasmid, positive control (COS cells transfected with HHD and pulsed with the respective peptide), COS cells transfected with HHD and with Hsp70 expression plasmids.
Peptide Processing Assay on COS-Transfected Cells. 2.2×10^4 simian COS cells were plated in flat-bottom 96 well plates in DMEM 10% FCS, in quadruplicates for each condition. 18 hours later, the medium is discarded, and 100 ng of each DNA plasmid, encoding for Hsp70 and HLA class I molecules, is put in contact with COS cells in DMEM 10% Nuserum […] Chloroquine 10 mg/mL DEAE Dextran. After 4 hours of incubation at 37° C., transfection medium is discarded, and 50 μL PBS 10% DMSO is added for 2 minutes for integration of plasmids. It is then discarded and transfected COS cells are placed in DMEM 10% FCS for 40 hours. Transfected COS cells are then used with 5×10^4 murine CTL in a TNF-α secretion assay.
(§1) TNF-α Secretion Assay. Transfected COS cells on day 4 or 10^5 target tumor cells were plated in 50 μL RPMI 10% FCS and when necessary incubated with 10 μM peptide for 1 hour. In blocking experiments, anti-HLA class I antibody w6/32 or an irrelevant antibody were incubated with target cells for 1 h30. 5×10^4 T cells were then added in 50 μL RPMI 10% FCS and incubated for 6 hours. Each condition was tested in quadruplicates. 50 μL of the supernatant was collected. Standard dilutions were prepared in 50 μL with final doses of TNF-α (kindly provided by I. Apfler, Bender Wien, Austria) ranging from 10^4 to 0.08 pg/mL. On both the supernatants and the standards were added 50 μL of 3×10^4 TNF-α sensitive WEHI-164c13 cells. They were incubated for 16 hours at 37° C. (23). Inhibition of cell proliferation was evaluated by the MTT colorimetric method. Briefly, 50 μL of MTT at 2.5 mg/mL (Sigma-Aldrich) was added and incubated for 4 hours at 37° C. Cells were then lyzed with 100 μL of a pH4.7 33% N,N-dimethyl formamide (Sigma-Aldrich) 20% SDS solution in water. Two hours after cells lysis, OD was measured at 550 nm on a Dynatech MR5000 spectrophotometer. TNF-α quantitation was calculated by linear interpolation with the standard dilutions.

[2] = tested on: MCF-7 and SAOS tumor cell lines; assay: Recognition by murine CTL of epitopes at the surface of human tumor cells, TNF-α secretion assay; format: cell-based; details: HLA-A*0201+ Hsp70+ tumor cells
Text: CTL recognition of tumoral cells is expressed as CTL secretion of TNF-α dosed in supernatant (X Axis, TNF-α ranges from 0 to 1000 pg/ml) after contact with the cells. Upper to lower bars represent the different cells and reagents in contact with CTL, respectively: 2 negative controls (M113, M44), SAOS, MCF-7, MCF-7 blocked with anti-class I (w6/32) antibody before mixed culture, and MCF-7 blocked with an irrelevant antibody before mixed culture.
as §1
We studied whether the over-expression of Hsp70 described in certain tumor cell lines was high enough to enable these epitopes to be presented at the surface of tumor cells. We addressed this question with our already available high-avidity murine CTLs, hypothesizing that such a high CTL avidity enables the recognition of the highest-Hsp70 expressing human tumor cells. […]

HHD mice = assay: Generation of CTL in HLA-A*0201 transgenic HHD mice (immunogenicity); format: in vivo, mouse
Experimental: Generation of CTL in HLA-transgenic mice. HLA-transgenic mice were injected subcutaneously at the base of the tail with 100 μg of peptide emulsified in incomplete Freund's adjuvant (IFA) in the presence of 140 μg of the I-A^b restricted HBVcore-derived T-helper epitope (128-140; sequence TPPAYRPPNAPIL). After 11 days, spleen cells (5×10^7 cells in 10 mL) were stimulated in vitro with peptide (10 μM). On day 6 of culture, the bulk responder populations were tested for specific cytotoxicity. Upon response, the CTL line was then weekly re-stimulated in vitro with 20×10^6 35Gy irradiated spleen cells in the presence of 1 to 0.1 μM peptide and 50 U/mL IL-2 (Proleukin, Chiron Corp.). Cytotoxicity was assayed 6 days after the last stimulation and TNF-α secretion 11-13 days after, with the addition of 50 U/mL IL-2 on day 7. HHD mice transgenic for HLA-A*0201 were used. B7B7 Kd mice and mice transgenic for HLA-A*0301 are used for the study of the HLA-B*0701 and HLA-A*0301 restricted peptides respectively.

human CD8+ cells = assay: Generation of CTL from human PBMC with peptide- or polyepitope-pulsed dendritic cells, intracellular IFN-γ staining; format: cell-based; details: CD8+ cells stimulated with peptide-loaded dendritic cells
Experimental: The three graphs entitled hCTL380, hCTL391 and hCTL393 represent respectively the testing of p380, p391 and p393-specific human CTLs. P391 and p393 specific CTLs were tested towards EBV-B cells, whereas p380 specific CTLs were tested towards T2 cells. The number of IFN-γ producing CD8+ cells for 10^5 CD8+ cells upon activation, indicated on the X-axis, was measured, as assessed by staining cells for CD8 and intracellular IFN-γ.
Polyepitope induced human CTL were tested for their capacity to respond to T2 cells loaded with p380, p391 or p393 or the irrelevant HIVpol589 peptides in intracellular IFN-γ staining. The X axis represents the number of IFNγ-producing CTL/10^5 CD8+ cells. On the Y axis, upper to lower bars represent the results obtained when cells were loaded respectively with irrelevant HIV pol589 peptides, or with p380, p391 or p393 peptides.
Generation of CTL from Human Peripheral Blood Mononuclear Cells (PBMC). Fresh PBMC collected from healthy donnors under informed consent were serologically typed for the studied HLA-class I molecule, and purified using standard Ficoll-Paque (Amersham Pharmacia Biotech AB). Dendritic cells (DC) were prepared by cultivating plastic adherent PBMC in the presence of 500 U/mL GM-CSF (R&D Systems Inc. MN) and 500 U/mL IL-4 (R&D Systems Inc. MN) for 7 days such as described in Keogh et al. (30).
DC were then maturated for 2 days with 2 μg/mL anti-CD40 antibody and 100 ng/mL Poly I:C (Sigma-Aldrich). […] Autologous CD8+ purified T-cells (CD8 MicroBeads, Miltneyi Biotec Inc. CA) were stimulated weekly with DC pulsed for two hours with peptide (10 μM) and irradiated at 35Gy at a T:DC ratio of 10:1 in culture medium (CM; RPMI 1640 supplemented with 10% human AB serum, […] L-glutamine and gentamycin). 1×10^3 U/mL IL-6 and SU/mL IL-12 (R&D Systems Inc. MN) were added during the first week of culture. 20 U/mL clinical grade IL-2 (Proleukin, Chiron Corp.) and 10 ng/mL IL-7 (R&D Systems Inc. MN) were added during the next two weeks of culture. 7 days after the last stimulation with DC, peptide specific IFN-γ secreting CD8+ T cells were magnetically sorted following encounter of the peptide presented by HLA-A*0201+ B-EBV cells (IFN-γ Secretion Assay, Miltenyi Biotec Inc. CA). The characterization of peptide-specific T cells was tested 7 days after the purification step.
Intracellular IFN-g Staining. 5×10^4 T cells were incubated with 10^5 stimulating peptide loaded EBV-B cells or with 10^5 tumor cells in the presence of 20 μg/ml brefeldin-A (Sigma, Oakville, Canada). Six hours later, they were washed, stained with r-phycoerythrin-conjugated anti-CD8 antibody (Caltag Laboratories, Burlingame, Calif.) in PBS for 25 min at 4° C., washed and fixed with 4% PFA. Then, cells were permeabilized with PBS 0.5% BSA 0.2% saponin (Sigma, Oakville, Canada), and stained with allophycocyanin-conjugated anti-IFNg mAb (PharMingen, Mississauga, Canada) for 25 min at 4° C. Cells were analyzed on FACSCalibur (Becton Dickinson, Mountain View, Calif.).

HLA-A*0201 [3] = target: T2, HLA-A*0201 (human); assay: HLA-A*0201 stabilisation on T2 cells, flow cytometry with BB7.2; ratio to reference peptide HIVpol 589
T2 construct: MHC class I molecule on TAP-deficient T2 cells; stabilised at the surface by the added peptide and detected with mAb BB7.2
Experimental: For each peptide concentration, the HLA-specific staining was calculated as the % of the staining obtained with 100 μM of the reference peptide. […] The mean RA value for each peptide is determined from at least three independent experiments.

HLA-A*0201 [4] = target: T2, HLA-A*0201; assay: decay of peptide-stabilised HLA-A*0201 on T2 cells after Brefeldin A, flow cytometry
Experimental: Assessment of Peptide/HLA class I Complex Stability. […] Cells were then washed four times to remove free peptide, incubated with Brefeldin A (10 μg/mL) for 1 hour to block cell surface expression of newly synthesized HLA molecules, washed and incubated at 37° C. for 0, 2, 4 or 6 hours. Subsequently, cells were stained with the HLA specific mAb followed by FITC conjugated goat anti mouse Ig mAb.

Molecule	Relative affinity (HLA-B*0702)	Relative affinity (HLA-A*0201 [3])	other results
YPEEISSMV [HSP 115]	>10		
YPVTNAVIT [HSP 137]	1.2		affinity for HLA-B*0702 (in words) (HLA-B*0702; Relative Affinity determination): high affinity
GPGPGGFGA [HSP 616]	>10		
STRIPKVQKL [HSP 340]	>10		
IPTKQTQIFT [HSP 420(10)]	>10		
IPTKQTQIF [HSP 420]	>10		
APLSLGLET [HSP 397]	>10		
LLDVAPLSL [HSP 393]			processing of the peptide: recognition of Hsp70 + HHD transfected COS cells by the specific murine CTL line [1]: are epitopes; presentation of the epitope at the surface of Hsp70 over-expressing human tumor cells [2]: epitope correctly presented at the surface of Hsp70 over-expressing tumors; induction of specific cytotoxic T cell immune response in HHD mice (HHD mice): capable of generating a specific cytotoxic T cell immune response; induction of specific human CTL (human CD8+ cells): capable of stimulating specific human CTL
QVCNPIISGL [HSP 601]	>10		
DVAPLSLGL [HSP 395]	>10		
YPVTNAVITV [HSP 137(10)]	>10		
YPEEISSMVL [HSP 115(10)]	>10		
LLDVAPLSL [HSP 393 (LLDVAPLSL)]		0.4	
YLGYPVTNA [HSP 134 (YLGYPVTNA)]		2.5	
YLGYPVTNAV (also called HSPI34(10)) [HSP 134(10) (YLGYPVTNAV)]		0.6	
SLFEGIDFYT [HSP 286 (SLFEGIDFYT)]		0.25	Stability (hrs) (DC50, half life of the HLA-A*0201/peptide complex) (HLA-A*0201 [4]): > 6 h
LMGDKSENV [HSP 380 (LMGDKSENV)]		2.5	Stability (hrs) (DC50, half life of the HLA-A*0201/peptide complex) (HLA-A*0201 [4]): 4 h
LLLLDVAPL [HSP 391 (LLLLDVAPL)]		0.5	Stability (hrs) (DC50, half life of the HLA-A*0201/peptide complex) (HLA-A*0201 [4]): > 6 h
